In patent US10442868B2, “Treating hepatitis B virus infections by administering receptor associated protein (RAP)” (Rhode Island Hospital, A Lifespan-Partner, priority 2013, dated 2019):

What was measured:
[1] = system: differentiated HepaRG cells; assay: Killing of differentiated HepaRG cells by LRP-utilizing toxin, trypan blue staining; type: cell-based, human; conditions: 500 ng/ml, 37° C. overnight, low dose
Description: Hepatocytes are polarized. LRP is distributed at the basolateral side rather than apical side of hepatocytes (Marzolo et al., Traffic 4:273-88, 2003) consistent with HBV infection from the bloodstream. It was recently reported that HBV preferentially infects hepatocytes near the edge of hepatocyte islands (Schulze et al., Hepatology 55:373-83, 2012). […] Differentiated HepaRG cells were untreated (left panel) or incubated with pseudomonas exotoxin A (500 ng/ml) at 37° C. overnight (right panel), and stained with 0.04% trypan blue to reveal dead (blue) cells under microscopy. The dead cells were mainly located at the periphery of hepatocyte islands, which are also most susceptible to HBV infection.

HBV = HBV infection of differentiated HepaRG cells with RAP or GST-RAP, secreted HBsAg by ELISA; type: cell-based; conditions: overnight with HBV inoculum and increasing concentrations, HBsAg measured 10 days later
Description: Differentiated HepaRG cells (4×10^4), which are susceptible to HBV infection (Gripon et al., Proc Natl Acad Sci USA 99:15655-60, 2002), were incubated overnight with HBV inoculum in the presence or absence of increasing concentrations of RAP or GST-RAP, and washed extensively to remove unbound HBV virions and HBsAg. Medium was changed every 2-3 days. HBsAg level in culture supernatant was measured 10 days later (at this point there was no more residual HBsAg from the inoculum, and signals detected reflect newly synthesized and secreted proteins). The level of HBsAg secreted into the culture supernatant was determined by an ELISA assay using a commercially available kit (e.g., Novus Biologicals, NEO BioLab, Cusabio Biotech Co., Ltd.). Briefly, culture medium was added to wells containing capture antibody (anti-HBsAg), followed by incubation at 37° C. for 30 min. After washing with provided washing buffer, conjugate (anti-HBsAg conjugated with HRP) was added followed by incubation at 37° C. for 30 min.

Row | Molecule | cell killing (trypan blue dead cells) [1] | HBsAg secretion to culture supernatant (HBV infectivity) (HBV)
1 | Pseudomonas exotoxin (protein) AEEAFDLWNECAKACVLDLKDGVRSSRMSVDPAIADTNGQGVLHYSMVLEGGNDALKLAIDNALSITSDGLTIRLEGGVEPNKPVRYSYTRQARGSWSLNWLVPIGHEKPSNIKVFIHELNAGNQLSHMSPIYTIEMGDELLAKLARDATFFVRAHESNEMQPTLAISHAGVSVVMAQAQPRREKRWSEWASGKVLCLLDPLDGVYNYLAQQRCNLDDTWEGKIYRVLAGNPAKHDLDIKPTVISHRLHFPEGGSLAALTAHQACHLPLETFTRHRQPRGWEQLEQCGYPVQRLVALYLAARLSWNQVDQVIRNALASPGSGGDLGEAIREQPEQARLALTLAAAESERFVRQGTGNDEAGAASADVVSLTCPVAAGECAGPADSGDALLERNYPTGAEFLGDGGDISFSTRGTQNWTVERLLQAHRQLEERGYVFVGYHGTFLEAAQSIVFGGVRARSQDLDAIWRGFYIAGDPALAYGYAQDQEPDARGRIRNGALLRVYVPRSSLPGFYRTGLTLAAPEAAGEVERLIGHPLPLRLDAITGPEEEGGRLETILGWPLAERTVVIPSAIPTDPRNVGGDLDPSSIPDKEQAISALPDYASQPGKPPREDLK | selectively killed cells in the periphery of hepatocyte islands | 
2 | GST-RAP: GST fusion form of RAP tested in HepaRG HBV infection (protein, left off: a dimerising Fc or GST, GST fusion form of RAP tested in HepaRG HBV infection) YSREKNQPKPSPKRESGEEFRMEKLNQLWEKAQRLHLPPVRLAELHADLKIQERDELAWKKLKLDGLDEDGEKEARLIRNLNVILAKYGLDGKKDARQVTSNSLSGTQEDGLDDPRLEKLWHKAKTSGKFSGEELDKLWREFLHHKEKVHEYNVLLETLSRTEEIHENVISPSDLSDIKGSVLHSRHTELKEKLRSINQGLDRLRRVSHQGYSTEAEFEEPRVIDLWDLAQSANLTDKELEAFREELKHFEAKIEKHNHYQKQLEIAHEKLRHAESVGDGERVSRSREKHALLEGRTKELGYTVKKHLQDLSGRISRARHNEL |  | dose-dependent reduction of HBsAg secretion
3 | RAP: Receptor associated protein, chaperone binding LRP and other LDLR family members; universal inhibitor of the LDLR protein family (SEQ ID NO:6) (protein, human receptor associated protein (RAP)) MAPRRVRSFLRGLPALLLLLLFLGPWPAASHGGKYSREKNQPKPSPKRESGEEFRMEKLNQLWEKAQRLHLPPVRLAELHADLKIQERDELAWKKLKLDGLDEDGEKEARLIRNLNVILAKYGLDGKKDARQVTSNSLSGTQEDGLDDPRLEKLWHKAKTSGKFSGEELDKLWREFLHHKEKVHEYNVLLETLSRTEEIHENVISPSDLSDIKGSVLHSRHTELKEKLRSINQGLDRLRRVSHQGYSTEAEFEEPRVIDLWDLAQSANLTDKELEAFREELKHFEAKIEKHNHYQKQLEIAHEKLRHAESVGDGERVSRSREKHALLEGRTKELGYTVKKHLQDLSGRISRARHNEL |  | dose-dependent reduction of HBsAg secretion
